Laboratory results: patent US20260201028A1 (SINGAPORE HEALTH SERVICES PTE, published 2026)

Biological target: human TRPM4 (transient receptor potential melastatin 4) in transfected HEK 293 cells (human, UniProt Q8TD43 1-1214)
Test: cell-based or functional assay

human TRPM4 (transient receptor potential melastatin 4) in transfected HEK 293 cells, sequence (Q8TD43 whole entry): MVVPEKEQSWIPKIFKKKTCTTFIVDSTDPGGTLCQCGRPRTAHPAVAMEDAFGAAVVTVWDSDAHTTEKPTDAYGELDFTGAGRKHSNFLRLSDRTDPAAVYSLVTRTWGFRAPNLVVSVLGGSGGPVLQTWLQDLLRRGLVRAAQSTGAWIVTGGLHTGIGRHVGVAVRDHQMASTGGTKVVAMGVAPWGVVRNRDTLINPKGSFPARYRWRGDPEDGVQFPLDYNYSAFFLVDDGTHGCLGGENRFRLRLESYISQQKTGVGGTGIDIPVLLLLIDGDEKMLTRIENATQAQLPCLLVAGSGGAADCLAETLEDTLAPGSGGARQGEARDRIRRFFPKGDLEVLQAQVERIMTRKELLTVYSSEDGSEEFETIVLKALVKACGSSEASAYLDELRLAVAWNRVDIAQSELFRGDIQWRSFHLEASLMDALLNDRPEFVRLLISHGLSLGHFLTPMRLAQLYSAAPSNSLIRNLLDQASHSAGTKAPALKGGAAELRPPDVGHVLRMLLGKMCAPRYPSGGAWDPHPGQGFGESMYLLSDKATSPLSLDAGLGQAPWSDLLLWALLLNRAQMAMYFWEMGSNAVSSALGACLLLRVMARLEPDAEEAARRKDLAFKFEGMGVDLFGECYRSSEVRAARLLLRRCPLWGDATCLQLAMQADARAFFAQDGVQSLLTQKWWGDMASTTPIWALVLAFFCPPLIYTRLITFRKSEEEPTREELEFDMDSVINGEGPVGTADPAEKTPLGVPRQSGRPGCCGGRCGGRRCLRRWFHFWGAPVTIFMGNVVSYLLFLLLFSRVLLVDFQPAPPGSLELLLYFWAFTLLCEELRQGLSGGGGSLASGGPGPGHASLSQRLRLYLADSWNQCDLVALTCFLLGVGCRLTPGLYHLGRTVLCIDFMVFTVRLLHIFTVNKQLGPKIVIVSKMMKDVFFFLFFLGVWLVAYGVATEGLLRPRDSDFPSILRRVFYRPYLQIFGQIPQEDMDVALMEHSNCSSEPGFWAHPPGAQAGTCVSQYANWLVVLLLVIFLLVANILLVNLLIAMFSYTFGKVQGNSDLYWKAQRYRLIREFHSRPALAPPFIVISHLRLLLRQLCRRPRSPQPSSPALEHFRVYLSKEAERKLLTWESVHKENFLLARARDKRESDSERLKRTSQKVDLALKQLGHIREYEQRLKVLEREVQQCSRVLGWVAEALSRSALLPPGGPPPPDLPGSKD

B1: humanized anti-TRPM4 antibody clone A2 (VH1 + VL1) (antibody, human IgG1, kappa, V domains shown)
VH: QVQLQESGPGLVKPSQTLSLTCTVSGYSITSDYAWNWIRQHPGKGLEWIGYLSYSGVTSYNPSLKGRVTISVDTSKNQFSLKLSSVTAADTAVYYCARKGTYYRYEGSYWYFDVWGQGTTVTVSS
VL: DIQMTQSPSSLSASVGDRVTITCHANQNIDVWLSWYQQKPGKAPKLLIYKTSNLHTGVPSRFSGSGSGTDFTFTISSLQPEDIATYYCQQGQSYPLTFGGGTKLEIKR
IC50, dose-dependent inhibition of hypoxia-induced TRPM4 current increase: 1.23 µg/mL
